Results from article PMC8709873.

Molecular target: myc-tagged LRRTM2 (UniProt O43300)
Experiment: immunostaining of cells or tissue; concentrated conditioned media with Fc proteins (~1 μg/ml) added to CHO cells expressing myc-LRRTM + GFP, on ice 30 min, washed, fixed; Fc detected with Cy3 anti-human IgG, ratio Fc MGV/LRRTM MGV, normalized to control-Fc

Sequence of UniProt O43300 (O43300 34-516): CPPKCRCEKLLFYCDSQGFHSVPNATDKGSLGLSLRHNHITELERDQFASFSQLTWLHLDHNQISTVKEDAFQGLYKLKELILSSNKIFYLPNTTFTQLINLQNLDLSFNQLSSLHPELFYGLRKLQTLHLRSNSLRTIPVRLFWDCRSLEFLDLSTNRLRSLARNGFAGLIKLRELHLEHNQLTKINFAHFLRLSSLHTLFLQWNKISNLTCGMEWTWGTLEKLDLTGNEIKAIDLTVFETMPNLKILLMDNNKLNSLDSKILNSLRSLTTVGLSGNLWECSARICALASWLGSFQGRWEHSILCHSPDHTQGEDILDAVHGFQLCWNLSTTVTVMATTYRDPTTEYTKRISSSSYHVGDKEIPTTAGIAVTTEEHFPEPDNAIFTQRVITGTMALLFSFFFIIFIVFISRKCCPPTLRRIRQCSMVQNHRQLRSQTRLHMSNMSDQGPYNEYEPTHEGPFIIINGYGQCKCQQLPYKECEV

## P469S HA-Nrxn1α-ecto-Fc (Fc fusion)
  fold increase in binding against WT: 2 fold
